Data: PMC6479498 (Molecules, 2019)

How the values were obtained:
[1] = molecular target: T1, AT-ATA (WT-AT), (R)-selective amine transaminase (Aspergillus terreus, UniProt Q0C8G1); experiment: acetophenone formation at […] nm; format: biochemical; conditions: 2.5 mM (R)-α-MBA, 0.1 mM PLP, 0.25% DMSO, 50 mM sodium phosphate pH 8.0; read-out: Km^pyruvate
T1 construct: gene ATEG_10023
T1 sequence (Q0C8G1 1-325): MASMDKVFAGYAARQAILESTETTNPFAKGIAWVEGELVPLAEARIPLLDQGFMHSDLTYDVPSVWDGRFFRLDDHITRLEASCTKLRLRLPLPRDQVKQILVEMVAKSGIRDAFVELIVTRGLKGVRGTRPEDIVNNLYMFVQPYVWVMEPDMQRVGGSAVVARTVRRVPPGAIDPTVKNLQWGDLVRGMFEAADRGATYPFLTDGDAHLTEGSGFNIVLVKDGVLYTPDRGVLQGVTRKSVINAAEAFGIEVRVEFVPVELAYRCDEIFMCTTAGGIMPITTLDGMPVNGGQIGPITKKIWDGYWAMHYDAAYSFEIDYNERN

CC(=O)C(=O)O = experiment: purified protein; format: biochemical, Aspergillus terreus; conditions: 2.5 mM (R)-α-MBA, 0.1 mM PLP, 0.25% DMSO, 50 mM sodium phosphate pH 8.0
C[C@@H](N)c1ccccc1 = experiment: purified protein; format: biochemical, Aspergillus terreus; conditions: 2.5 mM pyruvate, 0.1 mM PLP, 0.25% DMSO, 50 mM sodium phosphate pH 8.0

Row | Molecule | Km [1] [µM] | Km (CC(=O)C(=O)O) [µM] | kcat (CC(=O)C(=O)O) [s⁻¹] | kcat/Km (CC(=O)C(=O)O) [M⁻¹ s⁻¹] | Km (C[C@@H](N)c1ccccc1) [µM] | kcat (C[C@@H](N)c1ccccc1) [s⁻¹] | kcat/Km (C[C@@H](N)c1ccccc1) [M⁻¹ s⁻¹]
1 | CC(=O)C(=O)O [pyruvate] | 230 ± 20 | – | – | – | – | – | –
2 | AT-ATA (WT-AT), (R)-selective amine transaminase (Aspergillus terreus NIH2624; L118A) | – | 360 ± 50 | 1.48 ± 0.05 | 4150 | 180 ± 10 | 1.46 ± 0.01 | 7930
3 | AT-ATA (WT-AT), (R)-selective amine transaminase (Aspergillus terreus NIH2624; L118I) | – | 280 ± 20 | 0.82 ± 0.01 | 2950 | 130 ± 10 | 0.82 ± 0.01 | 6400
4 | AT-ATA (WT-AT), (R)-selective amine transaminase (Aspergillus terreus NIH2624; L118T) | – | 400 ± 20 | – | – | 180 ± 10 | 1.79 ± 0.02 | 9980
5 | AT-ATA (WT-AT), (R)-selective amine transaminase (Aspergillus terreus NIH2624; L118V) | – | 290 ± 20 | 0.51 ± 0.01 | 1760 | 160 ± 10 | 0.57 ± 0.01 | 3570
